From publication PMC3349339 (Journal of Molecular Biology, 2012)

Tests used:
[1] = target: HLA-DR1 with a His→Asn substitution at position β81 (human); assay: fluorescence polarisation
[2] = target: HLA-DR1 with a His→Asn substitution at position β81 (human)

**Q.** For “fluorescein-labelled HA peptide P1 L (from UniProt P03437 322-334)”, which t1/2 [1] is on record?
**A.** 55.6 h

**Q.** Which Kd [2] does the source give for “HA peptide P1,9 VA (from UniProt P03437 322-334)” here?
**A.** 0.739 µM

**Q.** Which t1/2 [1] does the source give for “fluorescein-labelled HA peptide P9 S (from UniProt P03437 322-334)” here?
**A.** 19.3 h

**Q.** For “HA peptide P1,9 VS (from UniProt P03437 322-334)”, which Kd [2] is on record?
**A.** 8.17 µM

**Q.** With “fluorescein-labelled HA peptide P1,9 LS (from UniProt P03437 322-334)” as the substance, how does the t1/2 [1] read?
**A.** 5.93 h

**Q.** “fluorescein-labelled HA peptide P9 A (from UniProt P03437 322-334)” was tested. Which t1/2 [1] did it give?
**A.** 43.6 h

**Q.** Which Kd [2] does the source give for “HA peptide P9 S (from UniProt P03437 322-334)” here?
**A.** 0.13 µM

**Q.** With “fluorescein-labelled HA peptide P1,9 LA (from UniProt P03437 322-334)” as the substance, how does the t1/2 [1] read?
**A.** 34 h

**Q.** With “HA peptide P1,9 LA (from UniProt P03437 322-334)” as the substance, how does the Kd [2] read?
**A.** 0.206 µM

**Q.** For “fluorescein-labelled HA peptide P1,9 VS (from UniProt P03437 322-334)”, which t1/2 [1] is on record?
**A.** 1.65 h

**Q.** How did the Kd [2] turn out when “HA peptide P1 V (from UniProt P03437 322-334)” was run?
**A.** 0.0894 µM

**Q.** With “HA peptide P1,9 LS (from UniProt P03437 322-334)” as the substance, how does the Kd [2] read?
**A.** 1.88 µM

**Q.** Which Kd [2] does the source give for “HA peptide P1 L (from UniProt P03437 322-334)” here?
**A.** 0.0679 µM

**Q.** “HA peptide P9 A (from UniProt P03437 322-334)” was tested. Which Kd [2] did it give?
**A.** 0.126 µM

**Q.** Which t1/2 [1] does the source give for “fluorescein-labelled HA peptide P1 V (from UniProt P03437 322-334)” here?
**A.** 47.9 h

**Q.** With “fluorescein-labelled HA peptide P1,9 VA (from UniProt P03437 322-334)” as the substance, how does the t1/2 [1] read?
**A.** 14.4 h
